Assay results: PMC8642242

Molecular target: SARS-CoV-1 (Sino 1-11) RBD, His-tagged (SARS-CoV-1)

WRAIR-2063 (human IgG1) (antibody)
IC50 of neutralization of SARS-CoV-1 (Sino 1-11) pseudovirus: 0.095 µg/mL
